Assay results from US7732209.

Experiments:
Assay in all cases: EMSA
[1] = biological target: T1, MBP-Tnp (Mos-1 transposase, phosphorylated, insect cells) (Drosophila mauritiana) (UniProt Q7JQ07); conditions: single Kd; Scatchard; 5 mM MgCl2, 20 mM Tris pH 9, ice
T1 sequence: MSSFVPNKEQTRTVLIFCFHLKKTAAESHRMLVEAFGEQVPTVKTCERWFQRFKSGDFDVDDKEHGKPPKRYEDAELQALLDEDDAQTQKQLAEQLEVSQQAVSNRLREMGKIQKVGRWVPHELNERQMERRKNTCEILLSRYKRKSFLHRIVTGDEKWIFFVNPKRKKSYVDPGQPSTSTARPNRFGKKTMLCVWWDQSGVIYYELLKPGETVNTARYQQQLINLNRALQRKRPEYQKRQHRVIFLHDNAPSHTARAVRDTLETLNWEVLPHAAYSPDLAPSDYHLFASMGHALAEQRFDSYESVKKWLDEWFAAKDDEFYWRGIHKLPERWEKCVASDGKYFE

[2] = biological target: T2, MBP-Tnp dephosphorylated with CIP (Drosophila mauritiana) (UniProt Q7JQ07); conditions: Scatchard, 5 mM MgCl2, 20 mM Tris pH 9, ice
T2 sequence: T1 sequence

[3] = biological target: T3, Mos-1 mariner transposase (Tnp), produced in bacteria (Drosophila mauritiana) (UniProt Q7JQ07); conditions: CITED (publication submitted), cited from earlier work
T3 sequence: T1 sequence

[4] = biological target: T4, Mos-1 transposase (Tnp), rabbit reticulocyte TnT, phosphorylated (Drosophila mauritiana) (UniProt Q7JQ07); conditions: single Kd; Scatchard; 5 mM MgCl2, 20 mM Tris pH 9, ice
T4 sequence: T1 sequence

[5] = biological target: T5, Mos-1 transposase in vitro translated, dephosphorylated with CIP (Drosophila mauritiana) (UniProt Q7JQ07); conditions: Scatchard, 5 mM MgCl2, 20 mM Tris pH 9, ice
T5 sequence: T1 sequence

Mos-1 ITR 3' (EcoRI/XbaI fragment of pBS(3'))
Kd [1]: 0.039 µM
Kd ([2]; Kd1, second Kd (Kd2) 24.69 nM): 0.00066 µM
Kd ([2]; Kd2 (second site)): 0.0247 µM
Kd ([3]; Kd1, specific ITR 3' binding, Scatchard): 0.0006 µM
Kd ([3]; Kd2, ITR bound as integration target): 0.01 µM
Kd [4]: 0.074 µM
Kd ([5]; Kd1, second Kd (Kd2) 15.5 nM): 0.0013 µM
Kd ([5]; Kd2 (second site)): 0.0155 µM
